The record followed here is US6312690, “Monoclonal recombinant anti-rhesus D (D7C2) antibody” (Institut Pasteur, dated 2001).

Assay [1] addresses T1, Rhesus D antigen (human, UniProt Q02161).
T1 sequence: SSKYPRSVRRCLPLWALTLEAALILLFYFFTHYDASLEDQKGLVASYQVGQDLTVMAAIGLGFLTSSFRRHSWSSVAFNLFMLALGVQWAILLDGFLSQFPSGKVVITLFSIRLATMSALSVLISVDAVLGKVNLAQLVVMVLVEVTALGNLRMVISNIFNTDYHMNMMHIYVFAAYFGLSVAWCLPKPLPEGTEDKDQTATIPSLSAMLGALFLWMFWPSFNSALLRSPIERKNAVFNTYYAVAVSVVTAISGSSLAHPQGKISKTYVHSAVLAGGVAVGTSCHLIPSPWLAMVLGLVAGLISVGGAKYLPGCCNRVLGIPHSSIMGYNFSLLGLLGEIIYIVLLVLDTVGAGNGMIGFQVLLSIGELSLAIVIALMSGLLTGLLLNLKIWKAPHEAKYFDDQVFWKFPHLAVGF

Assay [2] concerns the target T1, Rhesus D antigen. As to the kind of experiment: agglutination titre on a pool of papain-treated R1/r red blood cells, one hour at 37° C.
Assay [3] deals with T1, Rhesus D antigen. Nature of the assay: agglutination of red blood cells.

Where a chain is given by its changes, count along the chain named.

In the assay with Rhesus D antigen [1], “"irrelevant" recombinant antibody (IgG1, κ) directed against a protein other than the Rhesus antigen” returned a % specific lysis (ADCC test, 51Cr release) (% specific lysis) of 0.

B1: r-IgG-D7C2 recombinant monoclonal antibody (antibody, V domains shown)
VH: QVQLEQWGAGLLKPSETLSLTCTVYGGSFSGYYWSWIRQPPGKGLEWIGEINHSGSTNYNPSLKSRVTISVDTSKNQFSLKLNSVTAADTAVYYCARAPEYKWKYHGDWFDPWGQGTTVTVSS
VL: DIELTQDPAVSVALGQTVRITCQGDSLRTYYASWYQQKPGQAPVLVIYGKNNRPSGIPDRFSGSSSGNTASLTITGAQAEDEADYFCNSGGKVFGGGTKLTVLG
Molecule B1 came in with a titre (titre (1/x dilution)) in the assay with Rhesus D antigen [2] of 512. The % specific lysis (ADCC test, 51Cr release) (% specific lysis) with Rhesus D antigen [1] worked out at 93.3.

B2: IgM-D7C2 human parental monoclonal antibody (antibody, V domains shown)
VH: B1 VH with E5Q
VL: B1 VL with D1Q, I2S, E3V
On to B2, for which, in the assay with Rhesus D antigen [3], the binding result was “binds”.
